Experimental data as given in patent publication US20260097129A1 (KOOKMIN UNIVERSITY INDUSTRY ACADEMY COOPERATION FOUNDATION, published 2026).

B1: K101.3-DM1 (antibody, V domains shown)
VH: EVQLLESGGGLVQPGGSLRLSCAASGFTFSGYAMSWVRQAPGKGLEWVSAISHGGSSKYYADSVKGRFTISRDNSKNTLYLQMNSLRAEDTAVYYCAKDLLSPLQSIGSYDDAMDVWGQGTLVTVSS
VL: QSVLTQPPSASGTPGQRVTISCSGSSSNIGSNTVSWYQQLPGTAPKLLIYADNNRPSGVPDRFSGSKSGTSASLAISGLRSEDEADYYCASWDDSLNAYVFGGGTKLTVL
modifications: SMCC-DM1 conjugated to lysine residues of the antibody (positions not stated)
B2: K101.1-DM1 (antibody, V domains shown)
VH: EVQLLESGGGLVQPGGSLRLSCAASGFTFSNYSMSWVRQAPGKGLEWVSGIYYGSGNKYYADSVKGRFTISRDNSKNTLYLQMNSLRAEDTAVYYCAKNLASFDYWGQGTLVTVSS
VL: QSVLTQPPSASGTPGQRVTISCSGSSSNIGSNSVNWYQQLPGTAPKLLIYSNSHRPSGVPDRFSGSKSGTSASLAISGLRSEDEADYYCGTWDSSLSGYVFGGGTKLTVL
modifications: SMCC-DM1 conjugated to lysine residues of the antibody (positions not stated)

Target: GRP94 on human CRC cells (HCT116, LoVo, HT29, HCT8) (human, UniProt P14625 22-803)
Experiment: cell-based or functional assay

Chain of GRP94 on human CRC cells (HCT116, LoVo, HT29, HCT8) (P14625 22-803): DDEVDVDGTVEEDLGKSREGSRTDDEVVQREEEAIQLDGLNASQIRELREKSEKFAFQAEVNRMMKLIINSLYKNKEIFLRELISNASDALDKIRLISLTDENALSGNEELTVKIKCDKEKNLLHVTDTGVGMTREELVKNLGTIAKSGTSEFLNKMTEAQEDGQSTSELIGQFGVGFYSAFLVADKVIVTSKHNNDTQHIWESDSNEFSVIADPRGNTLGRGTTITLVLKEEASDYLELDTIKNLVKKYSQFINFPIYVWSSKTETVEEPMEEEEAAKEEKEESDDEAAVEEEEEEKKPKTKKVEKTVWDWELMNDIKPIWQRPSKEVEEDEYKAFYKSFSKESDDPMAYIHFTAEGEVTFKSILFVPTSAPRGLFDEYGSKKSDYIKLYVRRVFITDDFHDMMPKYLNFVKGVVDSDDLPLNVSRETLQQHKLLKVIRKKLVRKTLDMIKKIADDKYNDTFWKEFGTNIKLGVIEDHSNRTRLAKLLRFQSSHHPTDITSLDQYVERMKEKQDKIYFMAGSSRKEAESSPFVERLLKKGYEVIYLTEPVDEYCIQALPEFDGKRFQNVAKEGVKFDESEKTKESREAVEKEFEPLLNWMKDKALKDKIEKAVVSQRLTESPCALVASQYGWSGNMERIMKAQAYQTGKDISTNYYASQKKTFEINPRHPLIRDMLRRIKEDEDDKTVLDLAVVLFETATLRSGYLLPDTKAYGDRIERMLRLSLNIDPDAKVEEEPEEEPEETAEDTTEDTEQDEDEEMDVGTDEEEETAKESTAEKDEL

| Binder | IC50 of cell viability (CCK-8), HCT8 cells [nM] | IC50 of cell viability (CCK-8), HCT116 cells [nM] | IC50 of cell viability (CCK-8), HT29 cells [nM] | IC50 of cell viability (CCK-8), LoVo cells [nM] |
| --- | --- | --- | --- | --- |
| B1 | 44.9 | 57.8 | 48.3 | 35.5 |
| B2 | 78.8 | 34.9 | 77.7 | 52.5 |
